Experimental findings from patent US20180044406A1 (UNIVERSITY OF ROCHESTER, published 2018) are described below.

The target of this assay is T1, recombinant His-glucosaminidase (His-Gmd), 6-His tagged 53 kDa glucosaminidase subunit of S. aureus autolysin (Staphylococcus aureus, UniProt A7X0T9 776-1254).
T1 sequence: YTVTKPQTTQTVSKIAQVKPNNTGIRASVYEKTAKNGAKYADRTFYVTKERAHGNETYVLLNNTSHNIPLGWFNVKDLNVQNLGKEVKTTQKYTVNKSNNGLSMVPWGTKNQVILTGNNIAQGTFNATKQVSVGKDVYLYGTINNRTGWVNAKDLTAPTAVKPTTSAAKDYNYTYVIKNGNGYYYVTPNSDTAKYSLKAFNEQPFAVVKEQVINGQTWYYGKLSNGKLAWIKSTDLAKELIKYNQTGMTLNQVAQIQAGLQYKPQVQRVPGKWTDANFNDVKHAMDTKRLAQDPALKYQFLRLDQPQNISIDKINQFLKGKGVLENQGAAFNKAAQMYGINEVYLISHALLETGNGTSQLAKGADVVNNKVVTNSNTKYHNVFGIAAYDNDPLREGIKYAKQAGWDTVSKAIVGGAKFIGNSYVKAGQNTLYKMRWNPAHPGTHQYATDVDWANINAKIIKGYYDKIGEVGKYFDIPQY
As to the kind of experiment: cell-based or functional assay.

B1: monoclonal antibody 4A12 (mouse IgG1) (antibody, V domains shown)
VH: QVQLQQPGAELVGPGTSVKLSCKSSGYTFTKYWMHWLKQRPGQGLEWIGVIDPSDSYTNYNQKFKGKATLTVDTSSSTAYLQLSSLTSEDSAVYYCANYYGSYYDVMDFWGQGTSVTVSS
VL: DVQITQSPSYLAASPGETITINCRASKSISKYLAWYQEKPGKTNKLLICFGSTLQSGTPSRFSGSGSGTDFTLTISSLEPEDFATYYCQQHNEYPLTFGAGTKLELKR
With B1, the “fold difference, mouse 4A12 against h4A12, in the minimum concentration able to achieve ~100% inhibition of Gmd activity” value is about 3 fold.
